In this test the target is T1, recombinant E. coli L-asparaginase II (E. coli K-12 (JM109)), P00805.
T1 chain: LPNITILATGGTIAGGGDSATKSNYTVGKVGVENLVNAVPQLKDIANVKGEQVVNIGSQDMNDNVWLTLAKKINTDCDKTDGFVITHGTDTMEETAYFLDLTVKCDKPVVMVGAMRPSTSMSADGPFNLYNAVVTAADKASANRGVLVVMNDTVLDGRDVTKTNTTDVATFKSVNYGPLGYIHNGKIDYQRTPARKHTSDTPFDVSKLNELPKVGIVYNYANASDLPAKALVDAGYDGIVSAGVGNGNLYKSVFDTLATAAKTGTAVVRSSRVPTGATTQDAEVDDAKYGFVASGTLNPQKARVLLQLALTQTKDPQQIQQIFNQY
The test is described as follows: SEC; analytical HPLC gel filtration on Bio-Sep S-2000, 50 mM Tris-HCl, 10 mM NaCl, pH 7.5; 20 ul of 1.5 mg/ml injected, 1 ml/min; mass from calibration with marker proteins. The conditions noted are these: remark: other sources report otherwise. Background: Size exclusion chromatography separates by hydrodynamic size, large species first.

For orientation: stoichiometry N means the number of molecules, sites or subunits per partner or assembly.

B1: recombinant E. coli L-asparaginase II, P00805 23-348 (enzyme)
chain: T1 chain
As to B1, the stoichiometry N stood at 4.

The record behind these values is paper PMC4164012.
